Measurements published in the supplement of paper PMC12636428.

Test system: Saccharomyces cerevisiae
Assay: transcriptional activation domain activity (GFP:mCherry ratio, weighted mean of sorted bins, harmonized to initial dataset scale) (arbitrary fluorescence ratio units); higher = stronger transcriptional activation
Conditions: beta-estradiol 1 µM; induction time 4 h
Description: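 53-aa protein tiles (fungal proteins plus yeast TF control tiles) fused C-terminally to a DBD-estrogen-binding domain-mCherry synthetic TF, integrated in S. cerevisiae (URA3 locus) with a GFP reporter. Cells were induced with 1 uM beta-estradiol for 4 h at 30 C, FACS-sorted into 8 bins by GFP:mCherry ratio and barcodes sequenced. Activity is the read-weighted mean bin fluorescence (GFP:mCherry), averaged over barcodes (median 12); tiles under 50 reads were discarded. New active-learning values were harmonized by linear fit onto the scale of the initial (Hummel et al.) dataset. The assay saturates at low and high signal.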

Row | Sequence | transcriptional activation domain activity
1 | ASGAGAVKKAPKSPKAVATAKVGAKAAKPKAGAKATKPKAAKPKAAKAAAAGA | 20900
2 | ASGAKTVVKKEPASATPEPAPKQAEVKKPAAAEAAPVPAAKAAPALASAAAAA | 43400
3 | ASGSGSGSKSGGGGARQGGGGAAGAAGGKGGGAAGGSKGGGGAWGKMKAAASD | 18700
4 | ASIISQRSGIVRALSRLMIFDRKLRVKDTHLRRLQHRIVIQSLVFGAFFSCVG | 54700
5 | ASIPDPAADDDDAEFGGTGEKKPRKRAPKAASGESKNGKAKAVKTEGGASAAG | 33300
6 | ASIPEPTANLFLDSINTFGSIDIFDSDLDLNNTLQWADLFDLNFDNIMMTPQF | 123000
7 | ASKEGEREKEGGREKEGNEGKKEGDKEEGEKKEGTDKEEEEKGGEKGKGSGEE | 47900
8 | ASKRKRTEGESKKKEAKRERPKKKSRRDDDDDASGGDELEGKRSRKPKRASAS | 18500
9 | ASLEGGGGVVDISGETSSYVWRVLVYLAFINPFFCFLCALYAILILLAVLVTY | 29300
10 | ASLHCLRSSPSSSSPCAARERSSSRARTSSSMCPIAPTHKPRSSTGSPARGTP | 19900
11 | ASNAPGTGASRSAAAAATAAISRAKGAAQQQQAQKKPDASSSRPAGKQPAVKE | 26900
12 | ASNTTEVQLFINGSYVLLDTVCTRVLLYPDQILSNFRREDIALLCLQFWLFFI | 28700
13 | ASPDADGNGEVKKKYDPKDPMRPRRKKARRACYACQRAHLTCGDERPCQRCIK | 43400
14 | ASQFPWAQIEITWRCLTYLCFDSFLELPQYWMLRQKFLVEHALLAYAARYCLV | 54100
15 | ASSAPAAASSAPDAASSAPAAASSAPAAASSAPPAAASPAASPAAGGFQLQNG | 38200
16 | ASSASTGKGEEEEEDGEEKVRGKGKGQGQGQSQGQGQGQGQEAQERRDDEASA | 31700
17 | ASSSAPAAEPEAAAEEAPKKEEAAPAKEEPAAATTATAAAAGESSEAPKEAAP | 33900
18 | ASSSDEEEQEVDDMETDSSKKRSHDETKEEEVEEEEERPKKTVKVEKPKEKKT | 29200
19 | ASSSTPGAHQPTRRSAGAHRSEEHSVVLHLPPGTHRMKFIVDDRWRVSRELPT | 29000
20 | ASSTAAASAASSAAAAKGGNNNAGKGAAAAKGGAAAAKGGAAAGGAAAAKGGA | 24400
21 | ASSVRIIAIKYFLTIHRWLPIVFKRGFFSSLLNPVAQRQTELGLLILCMKLCC | 48800
22 | ASSYAVQHTRKKGRGGGGGEAGNKPANKAARSWDKNAELHGTQGKMHVTIAVT | 85900
23 | ASTAGPAAGGSVSAAPKRRGRPPKRKAEPEQGAEAQPAKKPRGRPRKSAVVEA | 12000
24 | ASTETPLPVPKRRGRPPKNNNAAGIVVFDGGEEAPAVKKRGRPKKVTEPVAST | 23100

Row | Sequence | transcriptional activation domain activity
25 | ASTKGRADVRGRSGKAAPQKGRGKARVGSKRAPHFRGGGIAFGPRPRDFSTEL | 28300
26 | ASVERCHRNIVPNGCAVFQAGGLVVVLVEVSRKSYLASLVPVIVNAILNEHQI | 43500
27 | ASVVQWLGFHPSKVEVRVRFTAVANKRSSRTSLLLLVVWSWRRQRWMLRWSSG | 49300
28 | ATAAAAVKSPRSKSKEPKKSLDAAAAVAATSPAPVAAEEPAAAAVVEEPAKPA | 41400
29 | ATAANEEGEEGEATPKKTPRKRAAKKQDVDGDASPKKKGRGKKVSDDETNVKS | < 6570
30 | ATAARRPRADEGEEGLDEATDAAAAPAAAAENGEAAAAKPKKNRKSKAAKAAA | 16300
31 | ATADRDGEREAQEVVATTVVHCHGLFGKTYISIIRAFHVLIVKHSLARLPKKI | 60700
32 | ATCPSFFRSICSTYYDNFVFVWDAVAAFLVPYQRYTYYPIMGIARFNLYLLSW | 52400
33 | ATDCAVKALRALQILMDHPTFPYDACLDLWHRCWPWMHFVHTFWKYLPGFVTG | 57200
34 | ATEKEVKPKKAAAPKKAAAPKEKKEKVEKAEKAPKPKANAAKKVKKTASAPAV | 20200
35 | ATGAGSDANAGEDETFHKSGEATLSSQHRYKDAIDFRKIVLKLTDGVRWGLGI | 37200
36 | ATGLAWGVWGKKGAPRFRGSCAERFDTLSSTEWKGSRLVRLVARFDNTVRSVP | 45600
37 | ATHPDYIDPHNAMDYLSNDGGDSYNLCHFWSNFEIADMDFWRSDAYQAFFDFL | 150000
38 | ATIAPPQLELVTDPQLSMDSFLEMIRVFTVPGKCFFDALAADSTDASCTEESL | 95400
39 | ATIIFVFTASICGYNFNFDWVFSYKLVEFENTLGWTLFCLWLFDALLCVLFMT | 52700
40 | ATIMYLGLCITFLPFLVIYVIYNICSAFYVVLLGLGLLVYWLTRNSRLLKWAF | 45800
41 | ATKTKAATTKKAAVPKKAAAKPAPKKAVAAAKPKANAGRPRKTVAAAAGPAPA | 42000
42 | ATLHYISPYCPRFGRYHILRMLHCIGGLHVAANLWCYYWVWVYVLNEIILPQW | 66400
43 | ATLNLIFTIDLLNFSFWSELPEDERFCIEYRGKRWTGYWSLVAALQRALDEGV | 39000
44 | ATNLFFTAAIFYFIFVVFGVILVLLYKALCELLIRSKKIGSESHLFHFIHNGW | 44900
45 | ATPAPAPGMSAAPAPAAEPVESTPKAESKPEPKPEPKAEPKAESKPAAKPAAA | 19500
46 | ATSVWLRVFFIAVSSIAVIPILNFWGLCKLWGFIFFFSCGNVYVGLLFTVVLF | 62300
47 | ATVNLVINFTEMTNLMRALLILYRLKERVLSMAKRLELAELRKSKSINVNLTL | 60400
48 | ATWKLVQIGYRRDESLFLYFFYFYLFLFCFNMCGSSFYLLLLCCHIHIVAHSV | 71000

Row | Sequence | transcriptional activation domain activity
49 | ATWWHVFGTRVFKPVPTYVGEFQTWLQAFIHLSWDWRLSTHMWFRYNFHMWTI | 68900
50 | AVAAAVAAIAAVAAEIKTVPAQAQEQEQEQEQEQAQVQVQVQAQAQPQQQQQA | < 6570
51 | AVAALVGVGFGLSGYFLVCNVYPILSSADSKSLCLLVLVLLALSFKVLFFNYY | 48300
52 | AVAPASTPVATEASPAGAPDAKGKKKEKAAAGANADAAGGKKGKGGAQAAPAT | 49500
53 | AVDESSSEVKPAEPKADEGKPETASEENTAEASKPEAPKAEEANAEETAPAEG | 51300
54 | AVEARFVTPQDPVLIQDDGSRLPPVPLEEAYKLNVLRREVIERAGSVAKAIEG | 63700
55 | AVGLPNPHAHTLLQSLYYLRSITFSLLRLKMEQRLSLLIPSYLTIWKLDRKAL | 68400
56 | AVGRGEFAQPVLVPGGGVAIVAIGRARWIRDEEKNGERRYRVGVSWSADHRVV | 40100
57 | AVGYIWYIPFYHYNYSILRAGMMTNFFWASLCLVYSNIRPYSEIGIVYLLLCP | 69800
58 | AVIRKIRLLVCLAREQALRGYALEMVIHGLKPFIVDSYCSQDTIGVVQYLLHR | 46700
59 | AVKAEPESTAPSLVKEENTEDTKPAPSSTAPAEPSSGGMFRKRKAPAAGAGSR | 39900
60 | AVKKEPTPEEDEEEEEEEPAPKPKARGGRKAKASAAVDADAAQAKPKRGRAKK | 30300
61 | AVLEFYEQSTRLVASDALGRHVRIELPPRLLVYVVFFSPSVAVVSRLCSLLAC | 35600
62 | AVLSLLCSLLNTTLKYNPASWRVPYDHVVFKDPKQILVTYCLQLLLVLILYPI | 37500
63 | AVLWNPCICFKSPLVFRFCLSVLLAYLSLPFIPFVFLYYCFLFFVLWFIHSSY | 31700
64 | AVMFGQVCVILVAFCFTNQITFVGIRHGLWRSRINTIRLYIFLLRCWQILCGL | 60900
65 | AVPAEGAKPEETPAAAPAETTEAAKTEESKPEAPAASEPAKTEPAAPAAAPAA | < 6570
66 | AVPCVVIVRNSLLIIILLPLELPLVMYVGSSNDCRGILLFYLFWFWSLRAIAV | 68600
67 | AVPGEVTEAEADSDVKTDDAAAAPATDEAAKPKKKKKKFARKPRRKAAAPAEG | 17100
68 | AVPGEVTEAEANGEAKAEGAAATTDEAAKPKKKKKSKSRKAKKTEDGTAPEEG | 37900
69 | AVPGEVTEAEANGETDKAEGAAPAEGDAEKPKKKKKKSAKKPKSTGAEGEAAE | 24700
70 | AVRAATSVLCKEMLRPGQSASLGLREAEEVECRMRALARLERVWVKTGASTNG | 54900
71 | AVRLCRVTIKDITDPLPEGLRLSILLMSMDSLRLGRLYQVLDYMTIRSSLGKV | 44600
